Biological target: LRRC4B (453–576) protein (UniProt Q9NT99)
Assay: ELISA; plates coated with LRRC4B (453–576) protein at 1 µg/ml in 50 mM carbonate buffer pH 9.6; FAM19A5 added; detected with HRP-conjugated C-A5-Ab; OD 450 nm (format as told for the CSF ELISA); n = 10 each

Chain of UniProt Q9NT99 (Q9NT99 453-576): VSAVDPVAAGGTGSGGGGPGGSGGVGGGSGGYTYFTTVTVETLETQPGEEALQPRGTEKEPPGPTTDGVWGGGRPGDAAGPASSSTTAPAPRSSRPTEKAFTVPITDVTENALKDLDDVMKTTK

Substance | EC50
MT FAM19A5 protein (ELISA) (natural protein) | 2.56 nM
WT FAM19A5 protein (ELISA) (natural protein) | 0.199 nM

From article PMC12324117
